The target in assay [1] is T1, 5T4 on 5T4-expressing CHO-K1 cells (UniProt Q13641 32-420).
T1 sequence (looked up): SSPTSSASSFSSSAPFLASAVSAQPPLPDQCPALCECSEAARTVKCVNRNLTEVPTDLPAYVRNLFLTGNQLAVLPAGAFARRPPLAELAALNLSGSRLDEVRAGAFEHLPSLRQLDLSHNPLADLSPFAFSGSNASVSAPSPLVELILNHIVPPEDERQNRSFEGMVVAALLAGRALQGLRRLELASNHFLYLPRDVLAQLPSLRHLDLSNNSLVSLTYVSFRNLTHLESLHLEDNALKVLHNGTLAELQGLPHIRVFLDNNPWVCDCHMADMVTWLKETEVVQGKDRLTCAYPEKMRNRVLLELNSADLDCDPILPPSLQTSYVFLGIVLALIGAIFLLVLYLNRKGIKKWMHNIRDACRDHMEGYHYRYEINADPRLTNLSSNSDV
Put plainly: cell-based or functional assay.

The target in assay [2] is T2, recombinant human 5T4 protein (5T4/His) (human, UniProt Q13641 32-355).
T2 construct: also called Human 5T4/His; recombinant 5T4; not shown: His tag of the bought protein
T2 sequence: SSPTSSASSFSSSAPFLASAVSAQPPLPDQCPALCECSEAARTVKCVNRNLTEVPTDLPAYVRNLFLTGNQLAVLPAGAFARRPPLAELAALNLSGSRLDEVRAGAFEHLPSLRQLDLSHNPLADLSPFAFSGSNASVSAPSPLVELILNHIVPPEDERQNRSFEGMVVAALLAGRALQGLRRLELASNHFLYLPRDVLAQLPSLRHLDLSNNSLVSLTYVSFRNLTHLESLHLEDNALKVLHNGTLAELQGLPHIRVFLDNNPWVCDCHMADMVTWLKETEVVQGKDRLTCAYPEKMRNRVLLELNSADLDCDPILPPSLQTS
Put plainly: ELISA, immobilized recombinant human 5T4, 0-500 nM (N=2). How it is done: The binding affinity of purified 53L10-M13 to 5T4 antigen was examined by ELISA (FIG. 14). A recombinant human 5T4 protein (ACRO Biosystems) was immobilized in a 96-well plate using the same method as that performed in FIG. 2 (Example 1). […] The curve showing the binding affinity of 53L10-M13 to 5T4 overlapped with the curve showing the binding affinity of 53L10 (●) to 5T4. The EC₅₀ values were 0.58 nM for 53L10-M13 and 0.53 nM for 53L10 (FIG. 14B).
A general note: An ELISA detects its analyte on a solid surface through an enzyme-linked reagent.

Assay [3] addresses T3, recombinant human PD-L1/Fc (human, UniProt Q9NZQ7 19-239, biotinylated in the competitive ELISA (sites not given)).
T3 construct: Bought from R&D Systems; also called recombinant PD-L1 protein; biotinylated PD-L1 ligand; not shown: Fc part of the bought fusion
Put plainly: ELISA, immobilized recombinant human PD-L1/Fc, 0-500 nM (N=2). The procedure: The binding affinity of purified 53L10-M13 to recombinant PD-L1 protein was examined by ELISA (FIG. 16). A recombinant human PD-L1/Fc protein (R&D Biosystems) was immobilized in a 96-well plate using the same method as that performed in Example 4. According to the procedure described in “Materials and Methods” later, the binding assay of 53L10-M13 and 53L10 to human PD-L1 protein was performed at increasing concentrations (0-500 nM). […] The curve showing the binding affinity of 53L10-M13 to PD-L1 overlapped with the curve showing the binding affinity of 53L10 (●) to PD-L1.

Assay [4] deals with T2, recombinant human 5T4 protein (5T4/His). Kind of assay: ELISA, immobilized recombinant human 5T4, tribody 0-500 nM. How it is done:
A recombinant human 5T4 protein (AMSBio) was immobilized onto 96-well ELISA plates. The binding assay of Tb535H and purified novel tribodies was performed by testing at increasing concentrations (0-500 nM) were carried out according to the procedure described in Materials and Methods. […] The Tb535H has two 5T4 binding arms derived from Fab and scFv, and the novel 53X tribody constructed has a monovalent 5T4 binding arm derived from a single Fab.

Assay [5] deals with T4, recombinant human PD-1/Fc (human, UniProt Q15116 25-167).
T4 construct: Bought from R&D Systems; also called recombinant PD-1 protein; immobilized PD-1 receptor; not shown: Fc part of the bought fusion
Put plainly: ELISA, immobilized recombinant human PD-1 (per the legend of FIG. 4B; the sentence prints PD-L1). An excerpt: To verify whether the novel tribodies including a binding arm to PD-L1 or PD-1 have a satisfactory binding affinity for their target recombinant proteins, we perfomed ELISA assays on immobilized PD-1 or PD-L1 proteins (FIG. 4).

T3 sequence (Q9NZQ7 19-239 limits assumed): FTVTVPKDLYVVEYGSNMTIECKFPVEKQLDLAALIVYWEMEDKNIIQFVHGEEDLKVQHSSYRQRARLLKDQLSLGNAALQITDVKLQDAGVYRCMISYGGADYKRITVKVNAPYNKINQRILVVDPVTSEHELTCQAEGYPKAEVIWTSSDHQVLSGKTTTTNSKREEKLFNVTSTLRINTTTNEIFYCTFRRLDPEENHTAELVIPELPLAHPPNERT
T4 sequence (Q15116 25-167 limits assumed): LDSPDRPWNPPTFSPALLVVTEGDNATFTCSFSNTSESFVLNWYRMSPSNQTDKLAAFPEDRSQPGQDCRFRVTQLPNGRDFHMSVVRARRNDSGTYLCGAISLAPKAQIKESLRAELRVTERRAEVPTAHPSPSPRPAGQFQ

B1: 53L10-M13 (other)
chain 1: QVQLVQSGAEVKKPGASVKVSCKASGYSFTSYYMHWVKQSPGQGLEWIGRINPNNGVTLYNQKFKDRVTMTRDTSISTAYMELSRLRSDDTAVYYCARSTMITNYVMDYWGQGTLVTVSSASTKGPSVFPLAPSSKSTSGGTAALGCLVKDYFPEPVTVSWNSGALTSGVHTFPAVLQSSGLYSLSSVVTVPSSSLGTQTYICNVNHKPSNTKVDKKVEPKSCDKTHTGPGGGSPGQVQLVQSGAELKKPGASVKVSCKASGYTFTRYTMHWVRQAPGQCLEWMGYINPSRGYTNYNQKFKDKATLTADKSTSTAYMELRSLRSDDTAVYYCARYYDDHYSLDYWGQGTLVTVSSASGGGGSGGGGSGGGGSAGDIQLTQSPSILSASVGDRVTITCRASSSVSYMNWYQQKPGKAPKRWIYDTSKVASGVPYRFSGSGSGTEYTLTISSMQPEDFATYYCQQWSSNPLTFGCGTKVEIKSG
chain 2: not shown
notes: also called 53L10 mutant; 53L0-M13
As to B1, the “EC50 of luciferase activity, T cell activation bioassay (NFAT) with CHO-5T4 target cells” value in assay [1] was determined as 0.016 nM. Further, the 50% effective concentration (EC50) (usually the concentration needed to bring the measured effect to its halfway point) in assay [2] came out at 0.58 nM; in assay [3] it was 36.9 nM.

B2: 53G tribody (other)
chain 1: B1 chain 1
chain 2: not shown
notes: Trispecific tribody, a heterodimer; L chain derivative: VL(5T4)-CL-scFv(LAG3.1); also called 5T4xCD3xLAG3
On to B2, for which the binding result in assay [4] was “binds”.

B3: 53P tribody (other)
chain 1: B1 chain 1
chain 2: not shown
notes: also called 5T4xCD3xisotype control
As for B3, the binding result in assay [4] is given as “binds”.

B4: 53D tribody (other)
chain 1: B1 chain 1
chain 2: not shown
notes: Trispecific tribody, a heterodimer; H chain derivative: VH(5T4)-CH1-scFv(hOKT3); L chain derivative: VL(5T4)-CL-scFv(PD-1.1); also called 5T4xCD3xPD-1
Take B4: the binding result in assay [5] and in assay [4] was “binds” each time.

The values above are taken from patent US20260242504A1 (CHIOME BIOSCIENCE, published 2026).
